Source: paper PMC4408062

Biological target: Recombinant human PCSK9 (proprotein convertase subtilisin/kexin type 9) (human) (UniProt Q8NBP7)
UniProt Q8NBP7, sequence (Q8NBP7 31-692): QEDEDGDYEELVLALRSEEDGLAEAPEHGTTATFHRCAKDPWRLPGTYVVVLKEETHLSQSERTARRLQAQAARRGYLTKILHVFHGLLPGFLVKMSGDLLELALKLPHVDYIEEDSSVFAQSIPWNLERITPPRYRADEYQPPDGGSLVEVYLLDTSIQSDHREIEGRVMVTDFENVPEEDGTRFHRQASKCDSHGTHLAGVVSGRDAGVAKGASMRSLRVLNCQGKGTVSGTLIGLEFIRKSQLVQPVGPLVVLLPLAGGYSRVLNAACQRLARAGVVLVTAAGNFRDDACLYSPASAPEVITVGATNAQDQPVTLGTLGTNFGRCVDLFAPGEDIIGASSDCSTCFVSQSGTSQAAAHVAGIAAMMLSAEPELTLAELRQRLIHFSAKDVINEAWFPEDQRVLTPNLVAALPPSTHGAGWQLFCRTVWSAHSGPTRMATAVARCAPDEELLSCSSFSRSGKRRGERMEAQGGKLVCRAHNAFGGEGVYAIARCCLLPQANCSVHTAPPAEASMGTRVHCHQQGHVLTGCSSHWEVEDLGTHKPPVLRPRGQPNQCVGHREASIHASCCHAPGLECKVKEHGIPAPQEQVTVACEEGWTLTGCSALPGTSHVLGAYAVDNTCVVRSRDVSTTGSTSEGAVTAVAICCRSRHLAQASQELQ

internalisation of PCSK9-488/J16 complexes in APLP2 siRNA treated HepG2 cells with 2.5 μg/ml LDL: 2.5 fold
Substance: LDL (low density lipoprotein particle)
